From patent US20210009693A1 (MABSPACE BIOSCIENCES SUZHOU, published 2021)
Where two headings read alike, the source gives them in different places.

T1: hPD-L2-Fc (human, UniProt Q9BQ51 20-219)
T1 construct: Acrobiosystems PD2-H5251; also called human PD-L2 protein; not shown: Fc tag
T1 sequence (looked up): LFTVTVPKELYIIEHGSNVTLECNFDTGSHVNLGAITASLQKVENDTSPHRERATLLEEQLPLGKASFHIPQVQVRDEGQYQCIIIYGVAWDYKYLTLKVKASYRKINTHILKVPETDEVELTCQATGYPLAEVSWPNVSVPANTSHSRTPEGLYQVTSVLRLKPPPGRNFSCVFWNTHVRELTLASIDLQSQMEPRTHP


Key:
[1] = target: hPD-L1 (antigen of the Biacore assay) (human, UniProt Q9NZQ7 19-238, limits assumed); assay: SPR (Biacore), antibody captured on anti-human Fc, antigen in flow
Sequence of hPD-L1 (antigen of the Biacore assay) (Q9NZQ7 19-238 limits assumed): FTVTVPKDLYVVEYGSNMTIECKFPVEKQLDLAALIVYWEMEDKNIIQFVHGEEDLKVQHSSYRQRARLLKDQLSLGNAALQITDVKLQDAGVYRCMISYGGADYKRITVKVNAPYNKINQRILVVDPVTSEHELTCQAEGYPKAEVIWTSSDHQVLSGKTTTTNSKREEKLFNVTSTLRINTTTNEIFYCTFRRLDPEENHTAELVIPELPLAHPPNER
Protocol: A CM5 sensor chip was activated in each flow cell by 7-min injection (10 μl/min) of freshly prepared 1:1 50 mM N-hydroxysuccinimide (NHS): 200 mM 1-ethyl-3-(3-dimethylaminopropyl)-carbodiimide (EDC). Then anti-human Fc antibody (GE Healthcare) in a concentration of 10 μg/ml in 10 mM sodium acetate buffer PH 5.0 was injected onto the activated chip at 10 μl/min (HBS-EP running buffer: 10 mM HEPES, 150 mM NaCl, 3.4 mM EDTA, 0.005% surfactant P20, pH 7.4). The remaining active coupling sites were blocked by 7 min injection of 1M ethanolamine at 10 μl/min. The immobilization level of each flow cell is ˜9000RU. Antibodies were captured in FC2 by anti-human Fe IgG (GE Healthcare) to 200˜300RU. FC1 was used as the reference cell. Antigen was injected at varying concentrations after capture of antibody. The association time for antibody binding antigen is 180s. Surface Regeneration condition is 120s at 10 μl/min in Gly pH1.5. The signals with captured antibody subtracted from those without captured antibody were calculated with Biacore X100 evaluation software ver. 2.0 (Biacore).

[2] = target: T2, Human PD-L1/CD274 with C-Fc Tag (hPD-L1-Fc) (human, UniProt Q9NZQ7 19-238); assay: blocking ELISA on coated hPD-L1-Fc; blocked ligand: biotinylated hPD-1-N297A
T2 construct: range 19-238; ACRO Biosystem PD1-H5258, made in HEK293; also called human PD-L1-Fc; not shown: Fc fragment of human IgG1 at C-terminus
T2 sequence (Q9NZQ7 19-238 limits assumed): as above
Protocol: High-binding clear polystyrene 96 well plates (Nunc) were coated with 100 μl/well of coating solution consisting of 1 μg/ml hPD-L1-Fc overnight at 4° C. Then the plates were washed once on an automatic plate washer using washing buffer (PBS+0.1% Tween 20 (Sigma)). 200 μl of blocking buffer (PBS+1% BSA+1% normal goat serum+0.05% Tween-20) was added to each well and incubated 2 hours at room temp. […] The plates were then washed 3 times using the method described above. […] After the plates were washed 3 times, 100 μl/well of a solution of 1:5000 diluted HRP conjugated Neutravidin antibody (Pierce) in dilution buffer was then added to each well of the plate. After that the ELISA plates were allowed to incubate for 60 min at RT, then the plates were washed 3 times with 250 μl/well washing buffer. Finally, 100 μl/well of TMB was added to each well and the reaction was terminated using 0.64M H₂SO₄. The plates were read on a Thermo Multiscan FC at 450 nM (see FIG. 18A to 18D).

[3] = target: T3, wild type human PD-L1-Fc protein (SEQ ID NO: 107) (human); assay: ELISA on captured PD-L1-Fc, as in Example 18A
T3 construct: Extracellular human PD-L1 (amino acid 19-238) with Fc fragment of human IgG1, expressed in 293T cells and used as culture supernatant; also called WT PD-L1; wild-type PD-L1
T3 sequence (chain, as listed by the source limits assumed): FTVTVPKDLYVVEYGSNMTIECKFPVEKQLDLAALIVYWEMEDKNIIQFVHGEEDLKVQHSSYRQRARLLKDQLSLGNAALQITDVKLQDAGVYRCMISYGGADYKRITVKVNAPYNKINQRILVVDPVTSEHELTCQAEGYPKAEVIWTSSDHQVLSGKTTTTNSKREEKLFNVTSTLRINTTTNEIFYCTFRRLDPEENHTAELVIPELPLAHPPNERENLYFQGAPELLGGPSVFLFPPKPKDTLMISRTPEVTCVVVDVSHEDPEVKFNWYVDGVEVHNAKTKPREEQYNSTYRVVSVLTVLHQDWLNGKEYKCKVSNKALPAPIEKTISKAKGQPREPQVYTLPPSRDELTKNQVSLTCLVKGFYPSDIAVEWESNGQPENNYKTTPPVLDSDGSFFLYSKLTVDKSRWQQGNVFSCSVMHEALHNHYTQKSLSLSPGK

[4] = target: T4, human PD-L1-Fc mutant E58A (human); assay: ELISA on captured PD-L1-Fc, as in Example 18A
T4 construct: Position 58 counts on native human PD-L1 (NP_054862.1); also called E58A mutant
T4 sequence (chain, as listed by the source E58A E58A limits assumed): as the sequence (chain, as listed by the source limits assumed) above, with E40A counted along it

[5] = target: T5, Recombinant Mouse PD-L1/CD274 Protein (mPD-L1-his) (mouse, UniProt Q9EP73 19-238); assay: ELISA, 20 ug/ml antibody on coated mouse PD-L1 (his-tagged per text, mPD-L1-Fc per sheet title)
T5 construct: range 19-238; ACRO Biosystem PD1-M5220; also called mouse PD-L1-his
T5 sequence (Q9EP73 other isoform, or with tags, fused parts or gaps limits assumed): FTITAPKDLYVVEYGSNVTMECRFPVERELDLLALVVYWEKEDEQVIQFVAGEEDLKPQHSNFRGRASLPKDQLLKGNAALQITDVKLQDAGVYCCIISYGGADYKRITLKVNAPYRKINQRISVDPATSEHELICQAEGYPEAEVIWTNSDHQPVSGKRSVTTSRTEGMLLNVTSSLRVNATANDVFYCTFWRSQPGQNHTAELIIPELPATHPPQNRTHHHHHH
Protocol: High-binding clear polystyrene 96 well plates (Nunc) were coated with 100 μl/well of 1 μg/ml mouse PD-L1-his in high pH coating buffer and incubated overnight at 4° C. Then plates were washed once on an automatic plate washer using washing buffer (PBS+0.1% Tween 20 (Sigma)). 200 μl of blocking buffer (PBS+1% BSA+1% normal goat serum+0.05% Tween-20) was added to each well and incubated for 2 hours at room temp. Then add 20 μg/ml purified hybridoma mouse antibodies in dilution buffer (PBS+1% BSA+1% normal goat serum+0.01% Tween-20) and incubate for 1 hour at RT. The plates were then washed 3 times with 250 μl/well washing buffer. 100 μl/well of a solution of HRP conjugated goat anti-mouse Fc antibody (Abcam) in dilution buffer was then added to each well of the plate. After that the ELISA plates were allowed to incubate for 60 min at RT then plates were washed 3 times with 250 μl/well washing buffer. Finally, 100 μl/well of TMB was added to each well and the reaction was terminated using 0.64M H₂SO₄. The plates were read on a Thermo Multiscan FC at 450 nM (see FIG. 6F).

[6] = target: T6, Recombinant Human PD-L1/CD274 Protein (hPD-L1-his) (human, UniProt Q9NZQ7 19-238); assay: ELISA on coated hPD-L1-his
T6 construct: range 19-238; ACRO Biosystem PD1-H5229, made in HEK293; also called human PD-L1-his; hPD-L-his
T6 sequence (Q9NZQ7 other isoform, or with tags, fused parts or gaps limits assumed): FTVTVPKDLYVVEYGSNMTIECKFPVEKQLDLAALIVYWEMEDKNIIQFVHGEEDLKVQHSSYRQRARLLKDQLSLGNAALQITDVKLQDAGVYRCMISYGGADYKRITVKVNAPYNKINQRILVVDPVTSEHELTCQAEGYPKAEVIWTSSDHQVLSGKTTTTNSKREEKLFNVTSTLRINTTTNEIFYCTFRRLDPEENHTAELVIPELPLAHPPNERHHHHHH

[7] = target: T1, hPD-L2-Fc; assay: ELISA, plate coated with hPD-L2-Fc
Protocol: Briefly, high-binding clear polystyrene 96 well plates (Nunc) were coated with 100 μl/well of a 0.5 μg/ml human PD-L1-Fc (Acrobiosystems, Cat #PD1-H5258) or 100 μl/well of a 1 μg/ml hPD-L2-Fc (Acrobiosystems, Cat #PD2-H5251), respectively, in high pH coating buffer (0.16% Na2CO3+0.3% NaHCO₃, pH 9.8) and incubated overnight at 4° C. Then the plates were washed once on an automatic plate washer using washing buffer (PBS+0.1% Tween 20 (Amresco)). 200 μl of blocking buffer (PBS+1% BSA+1% normal goat serum+0.05% Tween-20) was added to each well and incubated for 2 hours at room temp. Then add 100 μl 2 μg/ml purified PD-L1 antibodies with dilution buffer (PBS+1% BSA+1% normal goat serum+0.01% Tween-20) and incubate for 1 hour at RT. The plates were then washed 3 times with washing buffer. 100 μl/well of a solution of HRP conjugated goat anti-mouse IgG antibody (1:20000, Abcam) in dilution buffer was then added to each well of the plate. After that the ELISA plates were allowed to incubate for 60 min at RT then the plates were washed 3 times with 250 μl/well washing buffer. Finally, 100 μl/well of TMB was added to each well for 15 min and the reaction was terminated using 50 ul/well of 0.16 M/L sulfuric acid. The plates were read on a Thermo Multiscan FC at 450 nM (see FIG. 6G).

[8] = target: T6, Recombinant Human PD-L1/CD274 Protein …; assay: ELISA on coated hPD-L1-his; remark: listed apart in the source

| Binder | Kd [1] [nM] | koff [1] [s⁻¹] | kon [1] [M⁻¹ s⁻¹] | IC50 (read off the curve) [2] [µg/mL] | EC50 (read off the curve) [6] [µg/mL] | further results |
| --- | --- | --- | --- | --- | --- | --- |
| 4B6-H4L3 (antibody, V domains shown, Humanized; also called humanized 4B6 H4L3) VH: QVQLVQSGAEVKKPGASVKVSCKASGYVFTDYYMNWVRQAPGQGLEWIGDINPNNGGTSYNQKFQGRVTVTVDTSIRTAYMELSRLRSDDTAVYYCVKWGDGPFAYWGQGTLVTVSS VL: DIQMTQSQSSLSASVGDRVTITCQASQNVGAAVAWYQQKPGKAPKLLIYSASNRYTGVPSRFSGSGSGTDFTLTISSMQPEDIATYFCQQYSNYPTFGSGTKLGIK | 11.3 | 0.00148 | 132000 | ~0.03 |  |  |
| 4B6-H4L4 (antibody, V domains shown, produced in 293 cells; light chain constant region not described; also called humanized 4B6 H4L4) VH: QVQLVQSGAEVKKPGASVKVSCKASGYVFTDYYMNWVRQAPGQGLEWIGDINPNNGGTSYNQKFQGRVTVTVDTSIRTAYMELSRLRSDDTAVYYCVKWGDGPFAYWGQGTLVTVSS VL: DIQMTQSPSSLSASVGDRVTITCQASQNVGAAVAWYQQKPGKAPKLLIYSASNLYTGVPSRFSGSGSGTDFTLTISSLQPEDIATYFCQQYSNYPTFGSGTKLGIK |  |  |  | ~0.04 |  |  |
| 18G4 (antibody, V domains shown, Mouse monoclonal from hybridoma; also called mouse monoclonal antibody 18G4) VH: QVQLQQPGTALVKPGASVKLSCKASGYTFSSYYIHWVKQRPGQGLEWIGNINPFNGGSIYNEKFKNKASLTVDTSSNTAYMQLSSLTSEDSAVYYCARWHFDYWGQGTSLTVSS VL: DIVMTQSPSSLAVTAGEKVTLKCKSSQSLLWSGNQNNYLSWYQQKQGQPPKLLIYGASIRESWVPDRFTGSGSGTDFTLTIGNVSAEDLAVYYCQHNHGSFLPYTFGGGTRLEIK |  |  |  |  |  | Mean OD450 [3]: 1.45 OD450; OD450 nM of sample-1 [3]: 1.56 OD450; OD450 nM of sample-2 [3]: 1.34 OD450; % of binding of Ab to E58A mutant vs. that to WT PD-L1 [4]: 117%; Mean OD450 [4]: 1.7 OD450; OD450 nM of sample-1 [4]: 1.52 OD450; OD450 nM of sample-2 [4]: 1.88 OD450; binding result [5]: binds |
| 18G4-chimeric (antibody, V domains shown, Mouse variable regions fused to a human IgG1 constant region) VH: QVQLQQPGTALVKPGASVKLSCKASGYTFSSYYIHWVKQRPGQGLEWIGNINPFNGGSIYNEKFKNKASLTVDTSSNTAYMQLSSLTSEDSAVYYCARWHFDYWGQGTSLTVSS VL: DIVMTQSPSSLAVTAGEKVTLKCKSSQSLLWSGNQNNYLSWYQQKQGQPPKLLIYGASIRESWVPDRFTGSGSGTDFTLTIGNVSAEDLAVYYCQHNHGSFLPYTFGGGTRLEIK | 11.3 | 0.00515 | 450000 |  |  |  |
| 23F11-H4L6 (antibody, V domains shown, produced in 293 cells; light chain constant region not described; also called humanized 23F11 H4L6) VH: QVQLVQSGAEVKKPGASVKLSCKASGYIFTTYWMHWVKQRPGQGLEWIGMIQPNSGGTKYNEKFKKKATLTVDKSISTAYMELSRLTSDDTAVYYCARGAGTVDYFDYWGQGSTLTVSS VL: DIVLTQSPASLAVSVGQRATITCRASESVDIYGNSFMHWYQQKPGQPPKLLIYRASNLESGIPARFSGSGSRTDFTLTINPVEANDTATYYCHQSTEDPYTFGGGTKLEIK |  |  |  | ~0.04 | ~0.002 |  |
| 23A11 (antibody, V domains shown, also called mouse monoclonal antibody 23A11; clone 23A11) VH: LVQLQQPGAELVKPGASVKLSCKASGYIFTTYWIHWVKQRPGQGLEWIGMIQPNSGGTKYNDQFKNRATLTVDKSSTTASMQLSGLTSEDSAVYYCARGAGTVDYFDYWGQGTTLSISS VL: DIVLTQSPASLTVSLGQRATISCRASESVDIYGNSFMHWYQQKPGQSPKLLIYRASNLESGIPARFSGSGSRTDFTLTINPVEADDVATYYCHQSNDDPYTFGGGTKLETK |  |  |  |  |  | binding result [7]: no binding (tested: 2 ug/ml); binding result [5]: no binding (tested: 20 ug/ml) |
| 23F11-H6L6 (antibody, V domains shown, produced in 293 cells; light chain constant region not described; also called humanized 23F11 H6L6) VH: QVQLVQSGAEVKKPGASVKVSCKASGYIFTTYWMHWVRQAPGQGLEWIGMIQPNSGGTKYNEKFKKKATLTVDTSISTAYMELSRLRSDDTAVYYCARGAGTVDYFDYWGQGSTLTVSS VL: DIVLTQSPASLAVSVGQRATITCRASESVDIYGNSFMHWYQQKPGQPPKLLIYRASNLESGIPARFSGSGSRTDFTLTINPVEANDTATYYCHQSTEDPYTFGGGTKLEIK |  |  |  | ~0.05 | ~0.004 |  |
| 23F11-H6L4 (antibody, V domains shown, Humanized; also called humanized 23F11 H6L4) VH: QVQLVQSGAEVKKPGASVKVSCKASGYIFTTYWMHWVRQAPGQGLEWIGMIQPNSGGTKYNEKFKKKATLTVDTSISTAYMELSRLRSDDTAVYYCARGAGTVDYFDYWGQGSTLTVSS VL: DIVLTQSPASLAVSVGQRATITCRASESVDIYGNSFMHWYQQKPGQPPKLLIYRASNLESGIPARFSGSGSRTDFTLTINPVEANDTATYYCQQSTEDPYTFGGGTKLEIK | 103 | 0.0448 | 435000 | ~0.04 | ~0.002 |  |
| 23A11-H5L3 (antibody, V domains shown, produced in 293 cells; also called humanized 23A11 H5L3) VH: LVQLVQSGAEVKKPGASVKVSCKASGYIFTTYWIHWVRQAPGQGLEWIGMIQPNSGGTKYNDQFKNRVTLTVDTSISTAYMELSRLRSDDTAVYYCARGAGTVDYFDYWGQGTTLSISS VL: DIVLTQSPASLAVSVGQRATITCRASESVDIYGNSFMHWYQQKPGQSPKLLIYRASNLESGIPARFSGSGSRTDFTLTINPVEANDTATYYCHQSNDDPYTFGGGTKLETK |  |  |  | ~0.05 |  | EC50 (read off the curve) [8]: ~0.002 µg/mL |
